Source: article PMC2190564

Target: yeast actin filaments (S. cerevisiae) (UniProt P60010)
Assay: co-sedimentation

native yeast Abp1p (from UniProt P15891 1-592) (natural protein)
Kd: < 100 nM
stoichiometry N (Abp1p per actin (molar)): 1
